biological target: T1, Soluble CTLA-4-Ig (extracellular domain of human CTLA-4 fused to the Fc portion of human IgG1) (human, UniProt P16410 36-161, FITC-conjugated in the FACS binding assays); assay: competitive FACS on transfected cells, FITC-sCTLA-4-Ig with biotin-sCD28-Ig; grade 0-2 of CTLA-4/CD28 ratio vs WT hB7-1
T1 construct: extracellular domain; bought from R&D Systems; also called sCTLA-4-Ig; CTLA-4-Ig Fc; not shown: Fc portion of human IgG1
T1 sequence (P16410 36-161): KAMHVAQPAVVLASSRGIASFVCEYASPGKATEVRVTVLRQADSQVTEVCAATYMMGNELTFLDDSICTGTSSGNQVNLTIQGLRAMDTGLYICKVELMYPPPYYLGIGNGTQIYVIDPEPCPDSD

Binder | Binding Score
Round 2 CTLA4BP 5x2-f3 (ligand) VIHVTKEVKEVATLSCGHNVSVEELAQTRIYWQKEKKMVLTMMPGDMNIWPEYKNRTIFDITNNLSIVILALRPSDEGTYECVVLRYEKDAFKREHLAEVTLSVKADFPTPSISDFEIPTSNIRRIICSTSGGFPEPHLSWLENGEELNAINTTASQDPETELYTVSSKLDFNMTTNRSFVCLIKYGHLRVNQTFNWNTPKQEHFPDNLLPSWAITLISANGIFVICCLTHCFAPRCRERKSNERLRRESVRPV | 0
Round 2 CTLA4BP-5x3-6f (ligand) VIHVTKEVKEVATLSCGHNVSVEELAQTRIYWQKGKKMVLTMMSGDMNIWPEYKNRTIFDITNNLSIVILALRPSDEGTYECVVLEYEKDAFKREHLAEVMLSVKADFPTPSISDFEIPTSNIRRIICSTSGGFPEPHLSWLENGEELNAINTTASQDPETELYTVSSKLDFNMTTNHSFMCLIKYGHLRVNQTFNWNTPKQEHFPDNLLPSWAITLISANGIFVICCLAYCFAPGCRERKSNERLRRESVRPV | 2
Round 2 CTLA4BP 5x5-h12 (ligand) VIHVTKKVKEVATLSCGHNVSVEELAQTRIHWQKEKKMVLTMMSGDMNIWPEYKNRTIFDITNNLSIVILALRPSDEGTYECVVLKYEKDAFKREHLAEVMLSVKADFPTPSISDFEIPPSNIRRIICSTSGGFPEPHLSWLENGEELNAINTTVSQDPGTELYTVSSKLDFNMTTDRSFVCLIKYGHLRVNQTFNWNTPKQEHFPDNLLPSWAITLISVNGIFVICCLTYCFAPRCRERRRNGRLRRESVRPV | 1
Round 2 CTLA4BP 5x2-h11 (ligand) VIHVTKKVKEVATLSCGHNVSVEELAQTRIYWQKGKKMVLTMMSGDMNIWPECKNRTIFDITNNLSIVILALRPSDEGTYECAVLKYEKDAFKREHLAEVTLSVKADFPTPSISDFEIPTSNIRRIICSTSGGFPEPHLFWLENGEELNAINTTASQDPETELYAVSSKLDFNMTTNHSFMCLIKYGHLRVNQTFNWNTPKQEHFPDNLLPSWAITLISVNGIFVICCLTYCFAPRCRERKSNERLRRESVRPV | 1
Round 2 CTLA4BP 5x4-a1 (ligand) VIHVTKEVKEVATLSCGHNVSVEELAQTRIYWQKEKKMVLTMMSGDMNIWPEHKNRTIFDITNNLSIVILALRPSDEGTYECVVLKYEKDAFKREHLAEVTLSVKADFPTPSITDFEIPTSNIRRIICSTSGGFPEPHLSWLENGEELNAINTTVSQDPGTELYTVSSKLDFNMTTNRSFVCLIKYGHLRVNQTFNWNTPKQEHFPDNLLPSWAITLISVNGIFVICCLTYCFAPRCRERRRNERLRRESVRPV | 0
Round 2 CTLA4BP-5x2-8c (ligand) VIHMTKEVKEVATLSCGHNVSVEELAQTRIYWQKEKKMVLTMMSGDMNIWPEYKNRTIFDITNNLSIVILALRPSDEGTYECVVLKYEKDAFKQEHLAEVMLSVKADFPTPSITDFEIPPSNIRRIICSTSGGFPEPHLFWLENGEELNAINTTVSQDPETELYAVSSKLDFNMTTNHSFVCLIKYGHLRVNQTFNWNTPKQEHFPDNLLPSWAITLISANGIFVICCLTYCFAPRCRERRRNERLRRESVHPV | 2
Round 2 CTLA4BP 5x3-c3 (ligand) VIHMTKEVKEVATLSCGPNVSVEELAQTRIYWQKEKKMVLTMMSGDMNIWPEYKNRTIFDITNNLSIVILALRPSDEGTYECVVLKYEKDAFKREHLAEVTLSVKADFPTPSISDFEIPTSNIRRIICSTSGGFPEPHLSWLENGEELNAINTTVSQDPGTELYTVSSKLDFNMTTNHSFMCLIKYGHLRVNQTFNWNTPKQEHFPDNLLPSWAITLISVNGIFVICCLTHCFAPRCRERRRNERLRRESVCPV | 1
Round 2 CTLA4BP-5x2-2g (ligand) VIHVTKEVKEVATLSCGHNVSVEELAQTRIHWQKEKKMVLTMMSGDMNIWPEYKNRTIFDITNNLSIVILALRPSDEGTYECVVLKYEKDAFKREHLAEVMLSVKADFPTPSITDFEIPTSNIRRIICSTSGGFPEPHLSWLENGEELNAINTTVSQDPETELYTVSSKLDFNMTTNHSFMCLIKYGHLRVNQTFNWNTPKQEHFPDNLLPSWAITLISVNGIFVICCLTYRFAPRCRERKSNERLRRESVRPV | 2
Round 2 CTLA4BP-5x2-3c (ligand) VIHVTREVKEVATLSCGHNVSVEELAQTRIHWQKEKKMVLTMMSGDMNIWPEYKNRTIFDITNNLSIVILALRPSDEGTYECVVLKYEKDAFKREHLAEVMLSVKADFPTPSISDFEIPTSNIRRIICSTSGGFPEPHLSWLENGEELNAINTTVSQDPETGLYTVSSKLDFNMTTNHSFMCLIKYGHLRVNQTFNWNTPKQEHFPDNLLPSWAITLISVNGIFVICCLTYCFAPRCRERRRNERLRRESVCPV | 2
Round 2 CTLA4BP 5x3-e8 (ligand) VIHVTKEVKEVATLSCGHNVSVEELAQTRIYWQKEKKMVLTMMSGDMNIWPEYKNRTIFDITNNLSIVILALRPSDEGTYECVVLEYEKDAFKREHLAEVTLSVKADFPTPSISDFEIPTSNIRRIICSTSGGFPEPHLFWLENGEELNAINTTVSQDPETELYTVSSKLDFNMTANHSFVCLIKYGHLRVNQTFNWNTPKQEHFPDNLLPSWAITLISVNGIFVICCLTYCFAPGCRERRRNERLRRESVCPV | 1
Round 2 CTLA4BP 5x6-f6 (ligand) VIHVTKEVKEVATLSCGHNVSVEELAQTPIYWQKEKKMVLTMMSGDMNIWPEYKNRTIFDITNNLSIVILALRPSDEGTYECVVLKYEKDAFKREHLAEVMLSVKADFPTPSITDFEIPPSNIRRIICSTSGGFPEPHLFWLENGEELNAINTTVSQDPETELYTVSSKLDFNMTTNRSFVCLIKYGHLRVNQTFNWNTPKQEHFPDNLLPSWAITLISANGIFVICCLTYRFAPRCRERRRNERLRRESVCPV | 1

More lines, now with the values ahead:

Binding Score | Binder
1 | Round 2 CTLA4BP 5x5-c10 (ligand) VIHVTKEVKEVATLSCGHNVSVEELAQTRIYWQKEKKMVLTMMSGDMNIWPEYKNRTIFDITNNLSIVILALRPSDEGTYECVVLEYEKDAFKREHLAEVTLSVKADFPTPSITDFEIPPSNIRRIICSTSGGFPEPHLFWLENGEELNAISTTVSQDPETELYAVSSKLDFNMTTNHSFMCLIKYGHLRVNQTFNWNTTKQEHFPDNLLPSWAITLISVNGIFVICCLTYCFAPRCRERRRNERLRRESVHPV
2 | Round 2 CTLA4BP 5x4-h1 (ligand) VIHVTKEVKEVATLSCGHNVSVEELAQTRIHWQKEKKMVLTMMSGDMNIWPEYKNRTIFDITNNLSIVILALRPSDEGTYECVVLKYEKDAFKRKHLAEVMLSVKADFPTPSISDFEIPTSNIRRIICSTSGGFPEPHLFWLENGEELNAINTTASQDPETELYTVSSKLDFNMTTNRSFVCLIKYGHLRVNQTFNWNTPKQEHFPNNLLPSWAITLISVNGIFVICCLTYCFAPRCRERRRNETLRRESVHPV
1 | Round 2 CTLA4BP 5x9-d10 (ligand) VIHVTKEVKEVATLSCGLNVSVEELAQTRIYWQKGKKMVLTMMSGDMNIWPEYKNRTIFDITNNLSIVILALRPSDEGTYECVVLEYEKDAFKREHLAEVMLSVKADFPTPSISDFEIPPSNIRRIICSTSGGFPEPHLSWLENGEELNAINTTASQDPGTELYTVSSKLDFNMTTNHSFMCLIKYGHLRVNQTFNWNTPKQEHFPDNLLPSWAITLISVNGIFVICCLTHCFAPRCRERRRNERLRRESARPV
1 | Round 2 CTLA4BP-5X2-12F (ligand) VIHVTKEVKEVATLSCGHNVSVEELAQTRIHWQKEKKMVLTMMSGDMNIWPEYKNRTIFDITNNLSIVILALRPSDEGTYECVVLKYEKDAFKREHLAEVTLSVKADFPTPSITDFEIPPSNIKRIICSTSGGFPEPHLSWLENGEELNAINTTVSQDPETELYTVSSKLDFNMTTNHSFMCLIKYGHLRVNQTFNWNTPKQEHFPDNPLPSWAITLISANGIFVICCLTYCFAPRCRERRRNETLRRESVRPV
1 | Round 2 CTLA4BP-5x3-11b (ligand) VIHVTKEVKEVATLSCGHNVSVEELAQTRIYWQKEKKMVLTMMSGDMNIWPEYKNRTIFDITNNLSIVILALRSSDEGTYECVVLKYEKDAFKREHLAEVTLSVKADFPTPSITDFEIPPSNIRRIICSTSGGFPEPHLSWLENGEELNAISTTVSQDPETELYTVSSKLDFNMTTNRSFVCLIKYGHLRVNQTFNWNTPKQEHFPDNLLPSWAITLISVNGIFVICCLTYCFAPRCRERRSNERLRRESVRPV
1 | Round 2 CTLA4BP 5x3-c4 (ligand) VIHVTKEVKEVATLSCGHNVSVEELAQTRIYWQKEKKMVLTMMSGDMNIWPEYKNRTIFDITNNLSIVILALRPSDEGTYECVVLKYEKDAFKREHLAEVTLSVKADFPTPSISDFEIPPSNIRRIICSTSGGFPEPRLAWMEDGEELNAINTTASQDPETELYTVSSKLDFNMTTNRSFVCLIKYGHLRVNQTFNWNTPKQEHFPDNLFPSWAITLISVNGIFVICCLTYCFAPRCRERRRNERLRRESVRPV
1 | Round 2 CTLA4BP-5x2-7b (ligand) VIHVTKEVKEVATLSCGHNVSVEELAQTRIHWQKEKKMVLTMMSGDMNIWPEYKNRTIFDITNNLSIVILALRPSDEGTYECVVLKYEKDAFKREHLAEVTLSVKAGFPTPSITDFEIPPSNIRRIICSTSGGFPEPHLSWLENGEELNAINTTVSQDPGTELYTVSSKLDFNMTANHSFVCLIKYGHLRVNQTFNWNTPKQEHFPDNLLPSWAITLISANGIFVICCLTYCFAPRCRERRRNERLRRESVRPV
1 | Round 2 CTLA4BP-5x2-4c (ligand) VIHVTKEVKEVATLSCGLNVSVEELAQTRIYWQKEKKMVLTMMSGDMNIWPEYKNRTIFDITNNLSIVILALRPSDEGTYECVVLEYEKDAFKREHLAEVMLSVKADFPTPSISDFEIPPSNIRRIICSTSGGFPEPHLSWLENGEELNGINTTVSQDPETELYTVSSKLDFNMTTNRSFVCLIKYGHLRVNQTFNWNTPKQEHFPDNLLPSWAITLISVNGIFVICCLTYCFAPRCRERRRNERLRRESVHPV
2 | Round 2 CTLA4BP-5x3-10e (ligand) VIHVTKEVKEVATLSCGHNVSVEELAQTRIYWQKEKKMVLTMMSGDMNIWPEYKNRTIFDITNNLSIVILALRPSDEGTYECVVLEYEKDAFKREHLAEVTLSVKADFPTPSISDFEIPPSNIRRIICSTSGGFPEPHLFWLENGEELNAINTTVSQDPETELYAVSSKLDFNMTTNHSFMCLIKYGHLRVNQTFNWNTPKQEHFPDNLLPSWAITLISANGIFVICCLTYCFAPRCRERKSNERLRRESVHPV
